From publication PMC4916044 come the findings set out here.

The assay addresses endogenous NFκB2 p100 (mouse (endogenous in NFκB2+/+ MEFs)) (UniProt Q9WTK5). The assay can be described thus: immunodepletion.
Sequence of UniProt Q9WTK5 (Q9WTK5 whole entry): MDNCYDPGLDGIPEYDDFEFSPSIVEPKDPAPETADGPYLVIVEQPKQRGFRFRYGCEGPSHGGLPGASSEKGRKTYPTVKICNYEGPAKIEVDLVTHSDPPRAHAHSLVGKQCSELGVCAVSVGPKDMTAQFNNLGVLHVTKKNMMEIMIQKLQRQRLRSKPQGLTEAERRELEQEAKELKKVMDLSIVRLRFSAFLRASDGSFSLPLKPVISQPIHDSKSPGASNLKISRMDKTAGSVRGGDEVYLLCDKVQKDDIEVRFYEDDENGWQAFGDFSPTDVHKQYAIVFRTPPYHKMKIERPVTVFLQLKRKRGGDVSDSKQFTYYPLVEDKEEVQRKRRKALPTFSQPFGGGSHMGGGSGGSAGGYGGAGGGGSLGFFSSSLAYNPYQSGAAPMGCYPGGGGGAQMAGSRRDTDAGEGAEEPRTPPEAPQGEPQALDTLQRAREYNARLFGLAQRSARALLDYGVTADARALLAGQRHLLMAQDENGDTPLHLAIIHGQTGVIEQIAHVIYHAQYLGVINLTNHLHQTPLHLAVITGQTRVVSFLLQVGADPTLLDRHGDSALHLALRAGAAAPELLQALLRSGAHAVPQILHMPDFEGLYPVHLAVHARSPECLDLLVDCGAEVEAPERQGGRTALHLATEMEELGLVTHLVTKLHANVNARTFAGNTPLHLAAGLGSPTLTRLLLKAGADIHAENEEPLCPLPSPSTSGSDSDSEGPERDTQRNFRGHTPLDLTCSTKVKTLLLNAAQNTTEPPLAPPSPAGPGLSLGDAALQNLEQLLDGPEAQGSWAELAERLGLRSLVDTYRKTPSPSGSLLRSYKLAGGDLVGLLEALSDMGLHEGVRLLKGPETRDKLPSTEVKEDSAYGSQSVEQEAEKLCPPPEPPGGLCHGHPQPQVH

In turn, “endogenous ERK2 (from UniProt P63085 1-358) (natural protein)” returned a percent of endogenous ERK2 pulled down with p100 (immunodepletion) of 46%.
